The text below walks through data of patent publication US20050069541A1, “Composition for and treatment of demyelinating diseases and paralysis by administration of remyelinating agents” (priority 2003, published 2005).

Among the targets are CD45 (rat) (rat) (UniProt P04157); CD4 (rat) (rat) (UniProt P05540); Mac-1 (human) (human) (UniProt P11215); CD2 (rat) (rat) (UniProt P08921); Thy 1.1 (rat) (rat) (UniProt P01830).
Series [1] concerns the target β2 integrin (human) (human) (UniProt P05107).
The target of series [2] is α4 integrin (human) (human) (UniProt P13612).
For series [3] the target is unchanged. This is another data set of the same source.
The target is the same in series [4]. The source holds these as a separate data set.
Series [5] shares this target. This is another data set of the same source.
Series [6] has the same target. The source holds these as a separate data set.
The target of series [7] is α4 integrin (mouse) (mouse) (UniProt Q00651).
Series [8] addresses monocyte/T cell surface antigen (rat) (rat).
Series [9] addresses β1 integrin (human) (human) (UniProt P05556).
Series [10] shares this target. The source holds these as a separate data set.
Series [11] deals with α6 integrin (human) (human) (UniProt P23229).
In a further series the target is α4 integrin (Homo sapiens, UniProt P05556+P13612). Nature of the series: Inhibition of cell adhesion to VCAM. It counts as cell-based, human and guinea pig. The settings on record: 100% serum; read-out: IC50 for inhibition of cell adhesion to high density VCAM-1 in the presence of 100% serum.
In series [12] the test system is brain and spinal cord of EAE guinea pigs. Kind of series: Chronic EAE: histology and blinded pathological scoring of brain and spinal cord sections (H-E, SCR). In kind it is in vivo, guinea pig. The settings on record: versus saline; listed as N-[N-(3-pyridinesulfonyl)-L-3,3-dimethyl-4-thiaprolyl]-O-[1-methylpiperzain-4-yl. Here is the method:
Animal Sacrifice and Histological Analysis. Untreated, chronic EAE animals (n=5) were sacrificed on day 40, as well as non-EAE controls (n=5). Following each 10-day treatment interval, 5 animals from each group were sacrificed (0.25 mL sodium pentobarbital), blood samples were collected for FACS analysis (see below), and the brain and spinal cord dissected and sectioned. Three spinal sections were used, corresponding to lumbar, thoracic and cervical regions of the cord. The brain was cut into five transverse sections. The first three proximal sections were combined in one block, and the last two distal sections in another. Tissues were fixed in 10% formalin and embedded in paraffin. […] sections were stained with hematoxylin-eosin (H-E) or solochrome-R-cyanlin (SCR) and evaluated by a blinded observer in each of four categories: (1) meningeal inflammation, (2) perivascular infiltration, (3) encephalitis or (4) myelitis and demyelination (Table 6). The combined pathological score represents the total score (out of a potential 20) from all 5 CNS sections in each animal.

The test system of series [13] is infiltrating cells in spinal cord. Kind of series: Chronic EAE: mean cell counts in spinal cord (H-E sections, 0.12 mm^2 fields). It counts as in vivo, guinea pig. Conditions: listed as N-[N-(3-pyridinesulfonyl)-L-3,3-dimethyl-4-thiaprolyl]-O-[1-methylpiperzain-4-yl. The procedure:
To quantify the abnormalities observed in the spinal cord, sections stained with H-E were divided into 12 representative pie-shaped areas. In each area, the number of cells within a 0.12 mm^2 field of view was counted using Sigma Scan Pro image analysis software (SPSS Inc.), and the combined mean number of cells in all 12 areas was calculated for the whole spinal cord (36 fields of view per animal). Note that as all cell nuclei were counted, the number of cells may include neurons and glial cells in addition to infiltrates.

The test system of a further series is IL-2, IL-10, MCP-1 RNA. Kind of series: Chronic EAE: quantitative RT-PCR of spinal cord. The settings on record: 10 days after withdrawal; listed as N-[N-(3-pyridinesulfonyl)-L-3,3-dimethyl-4-thiaprolyl]-O-[1-methylpiperzain-4-yl. It counts as in vivo, guinea pig. The procedure:
Quantitative Reverse Transcription-PCR: IL-2, IL-10, MCP-1. RNA was isolated from 30 mg of frozen guinea pig spinal cord using the S.N.A.P.™ (simple nucleic acid preparation) total RNA Isolation Kit (Invitrogen) according to manufacturer's instructions, modified to include a second DNAse treatment step followed by an additional purification over the S.N.A.P. column.
Primer/probe sequences and concentrations for IL-2, IL-10, and MCP-1 are given in Table 7, as well as the standard RNA used for each gene. RT-PCR was carried out in triplicate using the ABI PRISM® 7700 Sequence Detection System. 50 μl reactions contained 10 to 800 ng of total RNA and primers and probes at the concentrations indicated above in reaction buffer consisting of 6.67% glycerol (Amresco); 5.5 mM MgCl; 300 μM DATP, dCTP, dGTP, and dUTP; 100 nM probe; 1.25 unit of AmpliTaq Gold® DNA Polymerase (Applied Biosystems); 1× TaqMan® Buffer A (TaqMan® PCR Core reagents kit, Applied Biosystems), 20 units of RNase Inhibitor (Roche); 1.25 unit of murine leukemia virus (MuLV) Reverse Transcriptase (Applied Biosystems). Reverse-transcription of RNA was carried out at 48° C. for 30 min., followed by a 10 min. denaturing step at 95° C. PCR was carried out by 40 thermo-cycles consisting of 95° C. for 15 seconds followed by 60° C. for 1 minute. Each plate included a standard curve using the standard RNA listed in Table 7 and two additional control samples: 1) a positive control RNA sample used on all plates, 2) a non-template control (NTC).
The correlation coefficients of the standard curves were greater than 0.990 for all data shown. The coefficients of variation for sample triplicates were less than 0.2. Since the RNA used for the standard curve is a heterogeneous mix of RNA containing a constant but unknown amount of the target message, the numbers calculated are relative.

Series [14] concerns spinal cord lesions of paralyzed EAE guinea pigs. Nature of the series: Example 2: spontaneous remyelination in chronic EAE (SCR, toluidine blue, EM, lesion area analysis, motor function). In kind it is in vivo, guinea pig.
Series [15] concerns EAE in female Hartley guinea pigs. The settings on record: listed as N-[N-(3-pyridinesulfonyl)-L-3,3-dimethyl-4-thiaprolyl]-O-[1-methylpiperzain-4-yl.
Series [16] has as its target L-selectin (mouse) (mouse) (UniProt P18337).
The target in series [17] is α4 integrin (human) (human) (UniProt P13612). This is another data set of the same source.
The target of the next series is T1, VLA-4 (Homo sapiens, UniProt P05556+P13612).
T1 construct: endogenous in cells; host or cells: Jurkat cells
The settings on record: cited from earlier work.

The test system of another series is human lymphocytes. Conditions: cited from earlier work.

Regarding TS1/18 (antibody), the Relative Binding to EAE Vessels (% of control) in series [1] was 98 % of control.
For the molecule HP2/1 (antibody), in series [2], the Relative Binding to EAE Vessels (% of control) is 3 % of control. The Relative Binding to EAE Vessels (% of Control), human lymphocytes in series [3] is 0 % of Control. The Relative Binding to EAE Vessels (% of Control), rat lymphocytes in the series with α4 integrin (rat) (rat) is 18 % of Control. In addition, in series [4], the % Input Binding Jurkat to TNFα-stimulated rat brain EC clone came to 6 % input. In [5], this molecule came in with a % Input Binding Ramos to VCAM-1 transfected L cells of 0 % input. This molecule showed a Jurkat binding to FN-coated plate (% inhibition) in [6] of 47 % inhibition.
For the molecule R1-2 (antibody), in [7], the Relative Binding to EAE Vessels (% of Control), mouse lymphocytes is 43 % of Control.
Turning to OX-1 (antibody), the Relative Binding to EAE Vessels (% of Control), rat lymphocytes in the series with CD45 (rat) (rat) was 90 % of Control.
In turn, `Cc1ccc(S(=O)(=O)N2CCC[C@H]2C(=O)N[C@@H](Cc2ccc(OC(=O)N3CCN(CCO)CC3)cc2)C(=O)OC(C)(C)C)cc1` registered a melting point of 158 to 160 °C.
For OX-35 (antibody), the Relative Binding to EAE Vessels (% of Control), rat lymphocytes with CD4 (rat) (rat) was 107 % of Control.
As for LM2/1 (antibody), the Relative Binding to EAE Vessels (% of control) with Mac-1 (human) (human) is 107 % of control.
Take OX-44 (antibody): in [8], the Relative Binding to EAE Vessels (% of Control), rat lymphocytes is 102 % of Control.
Consider OX-34 (antibody), for which, in the series with CD2 (rat) (rat), the Relative Binding to EAE Vessels (% of Control), rat lymphocytes is 100 % of Control.
Regarding AIIB2 (antibody), in series [9], the Relative Binding to EAE Vessels (% of control) is 8 % of control. In addition, the Relative Binding to EAE Vessels (% of Control), human lymphocytes in [10] was 7 % of Control.
As to HP1/7 (antibody), the Relative Binding to EAE Vessels (% of control) in series [2] is 338 % of control.
On to GoH3 (antibody), for which the Relative Binding to EAE Vessels (% of control) in series [11] was 88 % of control.
For the molecule OX-7 (antibody), the Relative Binding to EAE Vessels (% of Control), rat lymphocytes with Thy 1.1 (rat) (rat) was 87 % of Control.
Consider `CC(C)OC(=O)[C@H](Cc1ccc(OC(=O)N2CCN(C)CC2)cc1)NC(=O)[C@H]1N(S(=O)(=O)c2cccnc2)CSC1(C)C` [Example 381, N-[N-(3-pyridinesulfonyl)-L-3,3-dimethyl-4-thiaprolyl]-O-[1-methylpiperazin-4-ylcarbonyl]-L-tyrosine isopropyl ester], for which the IC50 on α4 integrin was 1 to 10 nM. In addition, in [12], the “spinal cord histology after 20 days of treatment (day 60)” value is listed as “much smaller area of demyelination”; the “spinal cord histology after 40 days of treatment (day 80)” value is “almost no meningeal and perivascular inflammation”. Further, the “cell number in spinal cord versus saline-treated animals” value in series [13] (after 10, 20, 30 or 40 days, p<0.001 two-way ANOVA) is “fewer cells”. Also, the “mean cell count after removal of compound for 10 days versus continuous treatment” value in series [13] (p<0.05) is “significantly increased”. For the same molecule, in the series on IL-2, IL-10, MCP-1 RNA, the “cytokine RNA after withdrawal of compound” value is given as “rose to levels comparable to those in saline-treated animals”. Further, the “SCR-stained spinal cord lesions after 20 days of treatment” value in series [14] (20 days, listed as N-[N-(3-pyridinesulfonyl)-L-3,3-dimethyl-4-thiaprolyl]-O-[1-methylpiperzain-4-yl) is on record as “lesions with a diffuse blue stain covering the plaque”. Moreover, the “SCR-stained spinal cord lesions after 40 days of treatment” value in series [14] (40 days, listed as N-[N-(3-pyridinesulfonyl)-L-3,3-dimethyl-4-thiaprolyl]-O-[1-methylpiperzain-4-yl) is listed as “majority of lesions showed clear myelin pallor”. For the same molecule, the “percentage of remyelination (mean percent of lesion area with myelin pallor)” value in series [14] (after 20, 30 or 40 days of therapy) is on record as 50%. In [14] (day 30 of treatment, listed as N-[N-(3-pyridinesulfonyl)-L-3,3-dimethyl-4-thiaprolyl]-O-[1-methylpiperzain-4-yl), the “semithin and EM sections of lesions” value is given as “multiple layers of thin myelin wrappings around large diameter axons indicative of remyelination”. The “incidence of remyelination (lesions with myelin pallor) versus saline” value in series [14] (time-dependent) is listed as “increased the incidence of remyelination”. Moreover, the “mean clinical score day 70-80 after withdrawal (30 days treatment, 10 days off) versus continuous treatment” value in [15] (n=5, p<0.05 Mann Whitney) was “significantly higher”. Besides, the escape from treatment result in series [15] (up to 40 days of treatment) is “no escape from treatment”. For the same molecule, in series [15] (up to 40 days, 30 mg/kg 2x/day s.c., guinea pig, 30 mg/kg), the “adverse side effects during prolonged administration” value is listed as “no adverse side effects”.
For P4G9 (antibody), the Relative Binding to EAE Vessels (% of control) in series [2] is 151 % of control.
OX-52 (antibody): the Relative Binding to EAE Vessels (% of Control), rat lymphocytes in the series with LFA-1 (rat) (rat) is 87 % of Control.
Regarding MEL-14 (antibody), the Relative Binding to EAE Vessels (% of Control), mouse lymphocytes in [16] was 92 % of Control.

B1: TY21.6 (antibody, V domains shown)
VH: EVQLQQSGAELVKPGASVKLSCTASGFNIKDTYIHCVKQRPEQGLEWIGRIDPANGYTKYDPKFQGKATITADTSSNTAYLQLSSLTSEDTAVYFCAREGYYGNYGVYAMDYWGQGTSVTVSS
VL: DIQMTQSPSSLSASLGGKVTITCKTSQDINKYMAWYQHKPGKRPRLLIHYTSALQPGIPSRFSGSGSGRDYSFNISNLEPEDIATYYCLQYDNLWTFGGGTKLEIK
Molecule B1 gave a % Input Binding Jurkat to TNFα-stimulated rat brain EC clone in series [4] of 8 % input. The % Input Binding Ramos to VCAM-1 transfected L cells in [5] is 1 % input. This molecule had a Binding of U937 cells to inflamed vessels in sections of EAE brain in [17] of 0. This molecule also registered a Jurkat binding to FN-coated plate (% inhibition) in [6] of 45 % inhibition. The “binding affinity for VLA-4” value with VLA-4 is recorded as “about 10^9 M^−1”. For the same molecule, in the series on human lymphocytes, the “human lymphocyte binding to TNF-stimulated rat brain cell cultures” value was “inhibit human lymphocyte binding”.

A word on the melting point: it is the temperature, or range, at which the solid turns liquid. The IC50 is the concentration that gives 50% inhibition.
